Tested on: SUM-159 breast cancer cells
Experiment: Chemoinvasion of breast cancer cells in the microfluidic platform
Assay type: cell-based
Description: We encapsulated highly invasive SUM-159 breast cancer cells within our platform. Cells were encapsulated in a mixture of Collagen:Matrigel at a ratio of 1:1 (final collagen density is 1 mg/mL) and the solution was injected into the tumor region while cell-free collagen type I (2 mg/mL) was injected into the stromal region. In one platform, 50 ng/mL of epidermal growth factor (EGF) was injected to the side channels to stimulate chemoinvasion, while in a control platform, no EGF was injected. We observed the migration of the cells throughout the stromal region over the course of four days in both conditions.
There was noticeable collagen deformation showing that the cells are actively sensing their biophysical environment and reacting to it. […] Cells without EGF stimulation did invade as well but not by the same distance.

[1] = 50 ng/mL EGF vs -EGF control, day 4

B1: EGF: epidermal growth factor injected to the side channels to stimulate chemoinvasion (protein, UniProt P01133 23-1207, looked up)
Pro-epidermal growth factor: PQHWSCPEGTLAGNGNSTCVGPAPFLIFSHGNSIFRIDTEGTNYEQLVVDAGVSVIMDFHYNEKRIYWVDLERQLLQRVFLNGSRQERVCNIEKNVSGMAINWINEEVIWSNQQEGIITVTDMKGNNSHILLSALKYPANVAVDPVERFIFWSSEVAGSLYRADLDGVGVKALLETSEKITAVSLDVLDKRLFWIQYNREGSNSLICSCDYDGGSVHISKHPTQHNLFAMSLFGDRIFYSTWKMKTIWIANKHTGKDMVRINLHSSFVPLGELKVVHPLAQPKAEDDTWEPEQKLCKLRKGNCSSTVCGQDLQSHLCMCAEGYALSRDRKYCEDVNECAFWNHGCTLGCKNTPGSYYCTCPVGFVLLPDGKRCHQLVSCPRNVSECSHDCVLTSEGPLCFCPEGSVLERDGKTCSGCSSPDNGGCSQLCVPLSPVSWECDCFPGYDLQLDEKSCAASGPQPFLLFANSQDIRHMHFDGTDYGTLLSQQMGMVYALDHDPVENKIYFAHTALKWIERANMDGSQRERLIEEGVDVPEGLAVDWIGRRFYWTDRGKSLIGRSDLNGKRSKIITKENISQPRGIAVHPMAKRLFWTDTGINPRIESSSLQGLGRLVIASSDLIWPSGITIDFLTDKLYWCDAKQSVIEMANLDGSKRRRLTQNDVGHPFAVAVFEDYVWFSDWAMPSVMRVNKRTGKDRVRLQGSMLKPSSLVVVHPLAKPGADPCLYQNGGCEHICKKRLGTAWCSCREGFMKASDGKTCLALDGHQLLAGGEVDLKNQVTPLDILSKTRVSEDNITESQHMLVAEIMVSDQDDCAPVGCSMYARCISEGEDATCQCLKGFAGDGKLCSDIDECEMGVPVCPPASSKCINTEGGYVCRCSEGYQGDGIHCLDIDECQLGEHSCGENASCTNTEGGYTCMCAGRLSEPGLICPDSTPPPHLREDDHHYSVRNSDSECPLSHDGYCLHDGVCMYIEALDKYACNCVVGYIGERCQYRDLKWWELRHAGHGQQQKVIVVAVCVVVLVMLLLLSLWGAHYYRTQKLLSKNPKNPYEESSRDVRSRRPADTEDGMSSCPQPWFVVIKEHQDLKNGGQPVAGEDGQAADGSMQPTSWRQEPQLCGMGTEQGCWIPVSSDKGSCPQVMERSFHMPSYGTQTLEGGVEKPHSLLSANPLWQQRALDPPHQMELTQ
modifications: Pro-epidermal growth factor
notes: epidermal growth factor injected to the side channels to stimulate chemoinvasion
In the case of B1, the “invasion distance into the stromal region” value (50 ng/mL EGF in side channels vs -EGF control, by day 3) is reported as “invaded further”, the “cell count as a function of migration distance” value [1] is reported as “more cells had migrated a greater distance” and the “number of cells in the media channels” value [1] is reported as “a higher number of cells were seen in the channels”.

From patent US10712339B2, “Engineering of a novel breast tumor microenvironment on a microfluidic chip” (Arizona Board of Regents on behalf of Arizona State …, priority 2014, dated 2020)
